Reference: the RNAGym collection of RNA variant scans (doi:10.7554/elife.90254)

B1: OR4K15 (parent)
chain: GUUAACGGUCAUAGGCCAUGGAAACUAGGAGCACCAUUUCGCUGCCAGUGAAGAAAUGAACAAAGAAAAUCUGGGCCAGGCAGGCAUCAAAAGAAAUAGUCUUGCGCUCAACCAGAAAGUCUGUAAUCAUUUUAAGGGUA

Variants of: B1
Assay: self-cleavage, relative activity (ratio to wild type); higher = more cleavage; in vitro, sequencing; the parent is a self-cleaving ribozyme

Compared with A98C A117G, U97C G123A is lower in self-cleavage: 2.47 for the first, 1.14 for the second.

First: A96G A98G
Second: A96G A98U
The self-cleavage of the first is lower: 0.91 for the first, 2.3 for the second.

Going from A96G A98C to A95U A98G, the self-cleavage rises from 0.63 to 1.46.

Compared with A96C A117G, A96G U130C is lower in self-cleavage: 1.87 for the first, 0.97 for the second.

Going from U97A A117G to A96C A118G, the self-cleavage falls from 2.09 to 0.95.

Compared with A96G A111U, A96G A111G is lower in self-cleavage: 0.11 for the first, 0.02 for the second.

Compared with A96G A140G, A98G U139G is lower in self-cleavage: 1.47 for the first, 0.86 for the second.

Compared with A98G U139C, A98U A118G is higher in self-cleavage: 0.5 for the first, 1.83 for the second.

Compared with A95G C113U, A96G U97A is higher in self-cleavage: 0.15 for the first, 0.94 for the second.

Going from A96G U97C to U97C A134U, the self-cleavage rises from 0.99 to 1.69.

First: A98G A129G
Second: A98G A129U
The self-cleavage of the first is lower: 0.17 for the first, 0.3 for the second.

Going from A96G C121U to A96G U103C, the self-cleavage falls from 2.57 to 1.27.

Compared with A96U A129G, G99A A111G is lower in self-cleavage: 1.36 for the first, 0.02 for the second.

Compared with G99A A117G, A98G U102A is lower in self-cleavage: 0.36 for the first, 0.15 for the second.

First: A95G U139G
Second: A95G U139C
The self-cleavage of the first is higher: 2.68 for the first, 2.07 for the second.

Going from A95G U139A to A96C U100A, the self-cleavage falls from 2.01 to 0.96.

Compared with A96C U100C, A96U A126G is lower in self-cleavage: 2.01 for the first, 1.58 for the second.

Compared with A95G A125G, A95G A110C is lower in self-cleavage: 1.02 for the first, 0.39 for the second.

Going from A95G A110G to A98G U127C, the self-cleavage rises from 0.15 to 0.39.

Going from U97C A111U to U97C A111G, the self-cleavage falls from 0.07 to 0.02.

Compared with A98G U122A, A98G U122C is lower in self-cleavage: 0.57 for the first, 0.34 for the second.

Going from A98U U124C to A96U G138U, the self-cleavage falls from 2.17 to 1.75.

First: A95G A135C
Second: A95G A135G
The self-cleavage of the first is higher: 2.68 for the first, 2.42 for the second.

First: A95G A135U
Second: A98G U124A
The self-cleavage of the first is higher: 1.45 for the first, 0.07 for the second.

Going from A95U U130C to U97C A126U, the self-cleavage falls from 0.47 to 0.44.

First: A96G U108G
Second: G99A C113U
The self-cleavage of the first is lower: 0.03 for the first, 0.05 for the second.

Going from A96U U130C to U97A A125G, the self-cleavage falls from 1.13 to 0.86.

Compared with U97G, U97A is lower in self-cleavage: 1.77 for the first, 1.75 for the second.

Going from U97C to U97A A140G, the self-cleavage rises from 0.71 to 1.98.

Compared with A95G U120A, A95G U120C is lower in self-cleavage: 2.78 for the first, 1.82 for the second.

First: A96U U127C
Second: A96C A126G
The self-cleavage of the first is higher: 1.7 for the first, 0.77 for the second.

Compared with A96G A114G, A96C U102C is higher in self-cleavage: 0.44 for the first, 2.16 for the second.

Compared with G99A U120C, A96C U103C is higher in self-cleavage: 0.26 for the first, 0.9 for the second.

Going from U97C U103C to A98G A140G, the self-cleavage rises from 0.58 to 0.69.

Going from A95U C105U to U97A U131C, the self-cleavage rises from 0.45 to 1.62.

First: A95U U122C
Second: A98G A126G
The self-cleavage of the first is higher: 1.44 for the first, 0.34 for the second.

Compared with A96G U124C, A98U U131C is higher in self-cleavage: 1.22 for the first, 2.12 for the second.

Compared with A98G G99U, U97A A98U is higher in self-cleavage: 1.42 for the first, 2.29 for the second.

First: A95U A111G
Second: A96C U130C
The self-cleavage of the first is lower: 0.05 for the first, 0.69 for the second.

Going from A96U U102C to A96U U102A, the self-cleavage falls from 2.54 to 1.08.

Going from A98U U122C to A96U A118G, the self-cleavage falls from 2 to 1.17.

Compared with A95G C101A, A95G C101U is higher in self-cleavage: 0.52 for the first, 1.28 for the second.

Going from A98G G104A to A96G C113G, the self-cleavage rises from 0.01 to 0.02.

First: A98G U133C
Second: A98G U133A
The self-cleavage of the first is higher: 0.65 for the first, 0.24 for the second.

Going from A96G A116U to A98G U108C, the self-cleavage falls from 0.24 to 0.

Going from A95U U132C to A95G U97C, the self-cleavage falls from 1.4 to 1.23.

First: A98U G115A
Second: A98U A111G
The self-cleavage of the first is higher: 0.1 for the first, 0.01 for the second.

First: U97C U120A
Second: A96G U100C
The self-cleavage of the first is lower: 0.31 for the first, 2.42 for the second.

First: U97A A111G
Second: A96U A125G
The self-cleavage of the first is lower: 0.03 for the first, 0.61 for the second.

Compared with A95G A117G, A95G A117U is lower in self-cleavage: 2.65 for the first, 1.7 for the second.

Compared with U97C A117G, A95G G136A is lower in self-cleavage: 2.06 for the first, 2 for the second.

Compared with A98G A135G, A95G A134G is higher in self-cleavage: 0.83 for the first, 1.89 for the second.

First: A96G G106U
Second: A96G G106C
The self-cleavage of the first is lower: 0.01 for the first, 0.02 for the second.

Compared with A96G C109A, A95G U103C is higher in self-cleavage: 0.37 for the first, 1.25 for the second.

Going from A95G U103G to A96C U132C, the self-cleavage rises from 0.06 to 0.83.

Compared with A96G A125G, A96G A125U is higher in self-cleavage: 0.69 for the first, 1.42 for the second.

Going from U97C G115U to A96G U127C, the self-cleavage rises from 0.03 to 0.58.

Going from A96G U127A to U97C A110U, the self-cleavage falls from 2.73 to 1.02.

Compared with A95U A116G, A96C A116G is lower in self-cleavage: 1 for the first, 0.33 for the second.

Compared with A98G A125G, A98G A118G is higher in self-cleavage: 0.13 for the first, 0.26 for the second.

First: A95G U133C
Second: A98G A111G
The self-cleavage of the first is higher: 1.23 for the first, 0.01 for the second.

First: A95U A117G
Second: A96G A117U
The self-cleavage of the first is higher: 2.29 for the first, 0.89 for the second.

Going from A96G G136A to A98G A117G, the self-cleavage falls from 2.06 to 0.81.

Compared with U97A A114G, U97C A125G is lower in self-cleavage: 0.64 for the first, 0.31 for the second.

First: A96G U132C
Second: A96G U132G
The self-cleavage of the first is lower: 1.21 for the first, 1.85 for the second.

First: A96U U97C
Second: A95G G104A
The self-cleavage of the first is higher: 1.9 for the first, 0.08 for the second.

Compared with A98G A116G, A95G C105G is lower in self-cleavage: 0.12 for the first, 0.03 for the second.

Compared with A95G C105U, A96G G138U is higher in self-cleavage: 0.43 for the first, 1.33 for the second.

First: A95G A126G
Second: U97A U133C
The self-cleavage of the first is lower: 1.12 for the first, 2.13 for the second.

Going from U97C U102C to U97C U102A, the self-cleavage falls from 2.38 to 0.47.

Going from A95U A134G to A98G U103C, the self-cleavage falls from 1.48 to 0.05.

Compared with U97C A98C, U97C A114G is lower in self-cleavage: 0.75 for the first, 0.13 for the second.

Compared with A96G A118U, U97C U122C is higher in self-cleavage: 0.79 for the first, 1.21 for the second.

First: A95G A98U
Second: A98G A114U
The self-cleavage of the first is higher: 1.77 for the first, 0.02 for the second.

Compared with A95G G138C, U97A U139A is lower in self-cleavage: 2.62 for the first, 1.2 for the second.

Going from G99A U102A to A96G A126U, the self-cleavage rises from 0.1 to 1.49.

Going from A96U G106A to A95G A114U, the self-cleavage rises from 0.01 to 0.42.

First: A95G U127G
Second: A96C G104A
The self-cleavage of the first is higher: 2.23 for the first, 0.02 for the second.

Going from U97G U127C to A96U C113U, the self-cleavage falls from 0.49 to 0.04.

Going from A95G G106A to A95G A111G, the self-cleavage rises from 0 to 0.03.

Going from A95G A111C to A95G A111U, the self-cleavage rises from 0.02 to 0.15.

First: A96G U131C
Second: A95G A129U
The self-cleavage of the first is higher: 1.73 for the first, 1.52 for the second.

First: U97C U130A
Second: A96U U132G
The self-cleavage of the first is lower: 0.78 for the first, 1.55 for the second.

A96G A110C showed a self-cleavage of 0.15.
